The values that follow come from patent US20210063414A1, “METHODS FOR PREVENTING AND/OR TREATING BONE LOSS CONDITIONS BY MODULATING IRISIN” (Dana-Farber Cancer Institute, Inc., priority 2018, published 2021).

Holding throughout (experiment): Crosslinking/co-immunoprecipitation/mass spectrometry (TMT quantitative proteomics) to identify irisin receptors
Type in all cases: binding

In assay [1] the target is T1, MLO-Y4 cell surface proteins (Mus musculus, UniProt Q6ZPE2).
T1 construct: endogenous in cells; host or cells: MLO-Y4
T1 sequence (Q6ZPE2 whole entry): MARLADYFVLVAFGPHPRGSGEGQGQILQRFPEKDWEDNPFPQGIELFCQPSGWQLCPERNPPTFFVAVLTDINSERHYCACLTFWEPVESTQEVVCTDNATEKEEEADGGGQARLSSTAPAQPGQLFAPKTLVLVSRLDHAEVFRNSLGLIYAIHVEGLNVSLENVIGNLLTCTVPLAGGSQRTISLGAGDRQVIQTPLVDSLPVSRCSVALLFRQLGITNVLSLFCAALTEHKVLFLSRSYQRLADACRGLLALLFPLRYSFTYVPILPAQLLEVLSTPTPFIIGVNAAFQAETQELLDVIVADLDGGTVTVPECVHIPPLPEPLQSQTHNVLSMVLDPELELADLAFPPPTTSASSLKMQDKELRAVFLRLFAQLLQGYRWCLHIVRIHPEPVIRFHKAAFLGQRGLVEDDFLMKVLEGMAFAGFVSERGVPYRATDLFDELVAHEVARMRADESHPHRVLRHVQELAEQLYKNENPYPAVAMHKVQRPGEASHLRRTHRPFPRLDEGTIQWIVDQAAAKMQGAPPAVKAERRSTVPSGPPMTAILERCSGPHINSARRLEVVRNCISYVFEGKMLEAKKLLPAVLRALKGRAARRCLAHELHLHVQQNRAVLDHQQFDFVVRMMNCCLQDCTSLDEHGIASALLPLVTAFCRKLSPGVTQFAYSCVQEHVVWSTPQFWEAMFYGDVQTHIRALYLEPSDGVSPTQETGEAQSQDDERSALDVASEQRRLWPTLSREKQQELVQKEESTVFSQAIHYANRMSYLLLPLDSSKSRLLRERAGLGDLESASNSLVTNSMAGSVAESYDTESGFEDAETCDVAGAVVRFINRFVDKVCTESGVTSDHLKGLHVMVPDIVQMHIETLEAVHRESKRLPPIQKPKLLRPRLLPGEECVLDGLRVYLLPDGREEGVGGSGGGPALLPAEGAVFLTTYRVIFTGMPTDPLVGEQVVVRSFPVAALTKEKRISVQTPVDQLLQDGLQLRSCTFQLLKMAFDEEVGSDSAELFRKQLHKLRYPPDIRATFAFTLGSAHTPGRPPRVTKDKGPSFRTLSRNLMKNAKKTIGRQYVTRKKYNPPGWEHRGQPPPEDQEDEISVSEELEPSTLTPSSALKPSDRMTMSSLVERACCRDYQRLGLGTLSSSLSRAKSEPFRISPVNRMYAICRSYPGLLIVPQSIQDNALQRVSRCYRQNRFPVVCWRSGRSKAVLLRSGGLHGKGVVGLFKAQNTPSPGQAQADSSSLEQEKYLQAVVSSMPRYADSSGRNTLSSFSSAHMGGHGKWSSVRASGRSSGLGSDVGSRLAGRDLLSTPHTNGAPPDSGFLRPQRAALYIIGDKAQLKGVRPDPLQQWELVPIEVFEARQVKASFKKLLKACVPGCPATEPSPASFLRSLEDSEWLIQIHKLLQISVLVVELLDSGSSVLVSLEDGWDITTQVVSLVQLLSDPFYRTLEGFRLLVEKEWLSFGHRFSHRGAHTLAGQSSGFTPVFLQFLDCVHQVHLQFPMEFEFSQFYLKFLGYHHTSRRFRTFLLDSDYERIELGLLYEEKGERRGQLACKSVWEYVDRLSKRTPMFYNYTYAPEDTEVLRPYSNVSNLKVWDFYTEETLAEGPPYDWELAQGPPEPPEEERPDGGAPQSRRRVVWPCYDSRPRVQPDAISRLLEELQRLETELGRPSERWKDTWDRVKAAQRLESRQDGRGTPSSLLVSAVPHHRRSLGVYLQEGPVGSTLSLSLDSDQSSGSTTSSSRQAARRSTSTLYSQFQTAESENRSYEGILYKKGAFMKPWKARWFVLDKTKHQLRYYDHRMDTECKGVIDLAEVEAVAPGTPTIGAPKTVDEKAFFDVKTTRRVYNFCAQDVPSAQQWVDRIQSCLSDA
As to conditions: co-precipitated protein Sbf1 (MTMR5_MOUSE). The protocol: (§1) MLO-Y4 cells were seeded on 30×150 mm type-I collagen coated dishes as described in cell culture experiment. At 60% cell density, medium was switched to FreeStyle™ 293 Expression medium. After 4 hours incubation, the cells were chilled on ice for 10 minutes, followed by treatment of 10 nM his-tag irisin or his-tag adipsin for 20 minutes. The cells were then incubated with 1.5 mM DTSSP for 30 minutes on ice to do cross-linking, after washing with 15 ml cold PBS twice. The cross-linking was quenched by addition of a final concentration of 20 mM Tris-pH 7.5. The cells were then harvested and homogenized in 1 ml RIPA buffer containing proteaseinhibitor cocktailand phosphatase-inhibitor cocktail. Whole-cell lysates were homogenized by 10 times passages through a 22G needle fitted to a 3 ml syringe. Homogenized samples were rotated gently in cold room for 20 minutes followed by 15,000×g centrifugation for 10 minutes. After addition of a final concentration of 10 mM imidazole, supernatants were incubated with 100 μl Ni-NTA agarose for 1 hour. After centrifugation at 500×g for 1 minute, the supernatants were aspirated and 1 ml cold RIPA buffer containing 10 mM imidazole were added to the agarose. After 10 minutes rotation in cold room, the supernatants were aspirated and 1 ml cold RIPA buffer containing 30 mM imidazole were added to the agarose. After repeating the washing 3 times, 0.8 ml RIPA buffer containing 250 mM imidazole was added and the agarose was gently rotated in a cold room for 20 minutes. After centrifugation at 1000×g for 2 minutes, the supernatants were transferred to 1.5 ml tube and incubated with 100 μl 0.2% sodium deoxycholate and 100 μl 10% trichloroacetic acid in ice for 1 hour. After centrifugation at 12,000×g for 10 minutes at 4° C., the supernatants were removed and 1 ml cold acetone was added to the pellets followed by vortexing for 10 seconds. After one more washing with cold acetone, the pellets were dried at 37° C., and 39 μl PBS and 13 μl 4×NuPAGE LDS were added to the pellets with a final concentration of 5 mM DTT. Solubilized proteins were incubated at 65° C. for 20 minutes followed by incubation with a final concentration of 14 mM iodoacetamide for 45 minutes in the dark. 38 μl samples were loaded to 4-12% gradient SDS-PAGE for separation followed by Coomassie Blue staining. The gels were submitted to quantitative proteomics.
(§2) For in-gel digestions, gels were stained with Coomassie Blue and were excised into 8 equal segments for control and irisin lanes. Gel pieces were destained and dehydrated with 100% acetonitrile, vacuumed dried, and digested in 25 mM HEPES (pH 8.5) with 500 ng sequencing grade trypsin (Promega) and incubated for an overnight at 37° C. (Shevchenko et al. (1996) Anal. Chem. 68:850-858). Digests were treated with 1% formic acid and purified using C18 Stage-Tips as previously described (Rappsilber et al. (2007) Nat. Protoc. 2:1896-1906). Peptides were eluted with 70% acetonitrile and 1% formic acid, then dried using a speedvac. Isobaric labeling of digested peptides was accomplished using 6-plex tandem mass tag (TMT) reagents (Thermo Fisher Scientific, Rockford, Ill.). Reagents, 5.0 mg, were dissolved in 252 μl acetonitrile (ACN) and 5 μl of the solution was added to the digested peptides dissolved in 25 μl of 200 mM HEPES, pH 8.5. After 1 hour at room temperature, the reaction was quenched by adding 1 μl of 5% hydroxylamine. Labeled peptides were combined and acidified prior to C18 Stage-Tips desalting.
(§3) All LC-MS/MS experiments were performed on an Orbitrap Fusion™ Lumos mass spectrometer (Thermo Fisher Scientific, San Jose, Calif., USA) coupled with a Proxeon EASY-nLC™ 1200 LC pump (Thermo Fisher Scientific). Peptides were separated on a 100 μm inner diameter microcapillary column packed with 35 cm of Accucore™ C18 resin (1.8 μm, 100 Å, Thermo Fisher Scientific). […]

Assay [2] addresses T2, MLO-Y4 cell surface proteins (Mus musculus, UniProt Q9D3P1).
T2 construct: endogenous in cells; host or cells: MLO-Y4
T2 sequence (Q9D3P1 1-638): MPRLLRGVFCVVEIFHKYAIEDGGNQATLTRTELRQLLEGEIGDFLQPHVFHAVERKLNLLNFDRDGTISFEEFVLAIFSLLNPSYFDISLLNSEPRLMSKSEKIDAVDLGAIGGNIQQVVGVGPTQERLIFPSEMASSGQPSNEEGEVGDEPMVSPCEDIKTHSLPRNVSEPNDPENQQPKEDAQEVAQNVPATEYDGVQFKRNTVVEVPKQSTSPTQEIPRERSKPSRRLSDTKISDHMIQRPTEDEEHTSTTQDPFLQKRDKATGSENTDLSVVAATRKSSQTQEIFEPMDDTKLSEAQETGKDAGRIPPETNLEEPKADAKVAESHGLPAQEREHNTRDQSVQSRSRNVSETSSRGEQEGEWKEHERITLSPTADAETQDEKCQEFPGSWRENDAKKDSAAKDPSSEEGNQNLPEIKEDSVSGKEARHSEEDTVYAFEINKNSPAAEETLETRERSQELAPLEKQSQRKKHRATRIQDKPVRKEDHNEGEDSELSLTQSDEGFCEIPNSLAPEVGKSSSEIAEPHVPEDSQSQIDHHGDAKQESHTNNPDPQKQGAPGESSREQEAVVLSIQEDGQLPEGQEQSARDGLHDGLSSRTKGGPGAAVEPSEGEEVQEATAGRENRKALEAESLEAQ
Conditions: co-precipitated protein Tchhl1 (TCHL1_MOUSE). The protocol: as §1, §2, §3

Assay [3] has as its target T3, MLO-Y4 cell surface proteins (Mus musculus, UniProt Q9Z138).
T3 construct: endogenous in cells; host or cells: MLO-Y4
As to conditions: co-precipitated protein Ror2 (ROR2_MOUSE). The protocol:
as §1, §2, §3

T3 sequence (Q9Z138 34-944): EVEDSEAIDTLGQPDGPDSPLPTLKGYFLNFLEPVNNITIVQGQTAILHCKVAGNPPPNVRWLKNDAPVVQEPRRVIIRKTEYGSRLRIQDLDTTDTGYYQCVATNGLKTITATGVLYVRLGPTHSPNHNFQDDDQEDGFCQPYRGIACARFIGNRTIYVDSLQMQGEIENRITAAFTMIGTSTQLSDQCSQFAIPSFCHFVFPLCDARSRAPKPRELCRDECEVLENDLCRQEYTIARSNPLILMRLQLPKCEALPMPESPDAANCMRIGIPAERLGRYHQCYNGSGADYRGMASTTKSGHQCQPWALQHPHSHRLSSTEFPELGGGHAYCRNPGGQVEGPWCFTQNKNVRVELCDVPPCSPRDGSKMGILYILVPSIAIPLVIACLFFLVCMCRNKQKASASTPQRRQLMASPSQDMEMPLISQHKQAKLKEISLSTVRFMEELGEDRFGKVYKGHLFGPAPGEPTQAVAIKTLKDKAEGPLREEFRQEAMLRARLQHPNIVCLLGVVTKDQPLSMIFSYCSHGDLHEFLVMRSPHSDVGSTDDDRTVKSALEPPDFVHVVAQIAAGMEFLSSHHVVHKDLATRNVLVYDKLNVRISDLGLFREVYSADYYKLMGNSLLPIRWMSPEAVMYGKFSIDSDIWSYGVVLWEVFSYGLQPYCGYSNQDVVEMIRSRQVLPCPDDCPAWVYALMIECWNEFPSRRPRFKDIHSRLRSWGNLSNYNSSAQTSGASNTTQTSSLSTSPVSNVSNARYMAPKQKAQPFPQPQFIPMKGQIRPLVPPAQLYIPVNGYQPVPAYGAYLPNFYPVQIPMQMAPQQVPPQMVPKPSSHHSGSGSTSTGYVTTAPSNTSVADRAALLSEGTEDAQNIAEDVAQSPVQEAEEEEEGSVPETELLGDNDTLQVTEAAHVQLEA

For adipsin, the TMT signal-to-noise ratio in assay [1] is on record as 71.1304; in assay [2], 1810.14; in assay [3], 67.6684.
